The record followed here is PMC10030117 (eLife, 2023).

This assay concerns the target T1, HKU1 spike (2P-stabilized ectodomain with foldon) (HCoV-HKU1, isolate N5 (as in PDB 5I08), UniProt Q0ZME7, stabilised).
T1 construct: source: ExpiCHO or Freestyle 293F cells, purified
The experiment in a line: ELISA. The note with it: both partners purified. A general note: ELISA stands for enzyme-linked immunosorbent assay.

B1: Antibody 3A3, full-length (mouse variable region-human IgG1 constant region chimera) (antibody, V domains shown)
VH: QVQLQQSGAELLKPGASVKLSCTASGFNIKDTYIHWLKQRPEQGLEWIGRIGPAIGNTIYAPKFQGKATITTDTSSNTAYLQLSSLTSEDTAVYYCARYYGSSYYYFDYWGQGTTLTVSS
VL: DIVMTQSAPSVPVTPGESVSISCRSSKSLLHSNGNTYLYWFLQRPGQSPQLLIYRMSNLASGVPDRFSGSGSGTAFTLRISRVEAEDVGVYYCMQYLEYPLTFGAGTKLELK
B1: the binding result was “binds”.

B2: Antibody RAY53, full-length human IgG1 (antibody, V domains shown)
VH: QVQLVQSGAVVLKPGASVKLSCKASGFNIKNTYIHWLKQAPGQRLEWIGRIGPAIGNTIYAPKFQGKATITTDTSASTAYLELSSLRSEDTAVYYCARYYGSSYYYLDYWGQGTTVTVSS
VL: DIVMTQSPLSVPVTPGEPVSISCRSSKSLLHSNGNTYLYWFLQKPGQSPQLLIARMSTLASGVPDRFSGSGSGTAFTLKISRVEAEDVGVYYCMQYLEYPLTFGAGTKLEIK
Regarding B2, the binding result is on record as “binds”.
